B1: Flag-CNK^2–549 [Drosophila] / GST-HYP [Drosophila] (parent complex)
chain 1: AYINIAEWTPDQVTDWIKGLDESMKGYLYEFSKQEIGGRALLNIRPYELENLGMLRIGHQEIVLEAVENLRNFHYHLKNDNLQFMALHVATAAKNLHRELARNHAESTKIDTRILHDITRTIATLKPLVGSLERTPFRKQEMYREYCGNVLKCGLELATIAHRDRFALQPVPAIRQSAERLENLANFVIQDISDPMVLQPASLNLVTLKKRESELGFNIESSYNGIHRVTDIKYNSPAHNSGKIEDGDEIVQINYQTVVGWQHRTVLEHLREALPDVVLTVKKRPKHTKMFGQIYMQPYRLPSKKRNMAARWAAQMPSPRAAFLTLDTEQLATGGTGSAVPDPSKSLSSEKREVLTKANPVSSASDSDSSCSDIPTPTDPKLAAREIRLYYPKPRALLQRRNTICGCEYLSLKNSDLVVPSWHERKPGIGSPTNCDPGSPSIRDKSISFGYGLEMAARPTTCIGIAGDTSTDKARRMFHEARKLKQLTEDSQREFLVDRYKPGVSKVVRFDAKEDYVMKNEKFICNVENTILETFEPIPFADEGDEDA
chain 2: MGEETINSTQNKTRTKTTRPKAVYLWTVSDVLKWYRRHCGEYTQYEQLFAQHDITGRALLRITDSSLQRMGVTDNRDREAIWREIVKQRLKTDIMEIRDMERLNIY

Variants of: B1
Assay: GST pull-down, immunoblot quantification; S2 cells; GST-HYP + RRKM co-expressed; anti-Flag (CNK) blot; parent: 1

Row | Variant | ratio to parent
1 | chain 1 AYINIAEWTPDQVTDWIKGLDESMKGYLYEFSKQEIGGRALLNIRPYELENLGMLRIGHQEIVLEAVENLRNFHYHLKNDNLQFMALHVATAAKNLHRELARNHAESTKIDTRILHDITRTIATLKPLVGSLERTPFRKQEMYREYCGNVLKCGLELATIAHRDRFALQPVPAIRQSAERLENLANFVIQDISDPMVLQPASLNLVTLKKRESELGFNIESSYNGIHRVTDIKYNSPAHNSGKIEDGDRIVQINYQTVVGWQHRTVLEHLREALPDVVLTVKKRPKHTKMFGQIYMQPYRLPSKKRNMAARWAAQMPSPRAAFLTLDTEQLATGGTGSAVPDPSKSLSSEKREVLTKANPVSSASDSDSSCSDIPTPTDPKLAAREIRLYYPKPRALLQRRNTICGCEYLSLKNSDLVVPSWHERKPGIGSPTNCDPGSPSIRDKSISFGYGLEMAARPTTCIGIAGDTSTDKARRMFHEARKLKQLTEDSQREFLVDRYKPGVSKVVRFDAKEDYVMKNEKFICNVENTILETFEPIPFADEGDEDA [chain 1 E249R] | 0.84

Variants of: B1
Assay: GST pull-down, immunoblot quantification; S2 cells; only Flag-CNK2–549 and GST-HYP co-expressed; anti-Flag blot; parent: 1

Row | Variant | ratio to parent
2 | chain 1 AYINIAEWTPDQVTDWIKGLDESMKGYLYEFSKQEIGGRALLNIRPYELENLGMLRIGHQEIVLEAVENLRNFHYHLKNDNLQFMALHVATAAKNLHRELARNHAESTKIDTRILHDITRTIATLKPLVGSLERTPFRKQEMYREYCGNVLKCGLELATIAHRDRFALQPVPAIRQSAERLENLANFVIQDISDPMVLQPASLNLVTLKKRESELGFNIESSYNGIHRVTDIKYNSPAHNSGKIEDGDRIVQINYQTVVGWQHRTVLEHLREALPDVVLTVKKRPKHTKMFGQIYMQPYRLPSKKRNMAARWAAQMPSPRAAFLTLDTEQLATGGTGSAVPDPSKSLSSEKREVLTKANPVSSASDSDSSCSDIPTPTDPKLAAREIRLYYPKPRALLQRRNTICGCEYLSLKNSDLVVPSWHERKPGIGSPTNCDPGSPSIRDKSISFGYGLEMAARPTTCIGIAGDTSTDKARRMFHEARKLKQLTEDSQREFLVDRYKPGVSKVVRFDAKEDYVMKNEKFICNVENTILETFEPIPFADEGDEDA [chain 1 E249R] | 0.75

Variants of: B1
Assay: GST pull-down, immunoblot quantification; S2 cells; GST-HYP, V5-KSR, Myc-MEK co-expressed; anti-Flag (CNK) blot; parent: 1

Row | Variant | ratio to parent
3 | chain 1 AYINIAEWTPDQVTDWIKGLDESMKGYLYEFSKQEIGGRALLNIRPYELENLGMLRIGHQEIVLEAVENLRNFHYHLKNDNLQFMALHVATAAKNLHRELARNHAESTKIDTRILHDITRTIATLKPLVGSLERTPFRKQEMYREYCGNVLKCGLELATIAHRDRFALQPVPAIRQSAERLENLANFVIQDISDPMVLQPASLNLVTLKKRESELGFNIESSYNGIHRVTDIKYNSPAHNSGKIEDGDEIVQINYQTVVGWQARTVLEHLREALPDVVLTVKKRPKHTKMFGQIYMQPYRLPSKKRNMAARWAAQMPSPRAAFLTLDTEQLATGGTGSAVPDPSKSLSSEKREVLTKANPVSSASDSDSSCSDIPTPTDPKLAAREIRLYYPKPRALLQRRNTICGCEYLSLKNSDLVVPSWHERKPGIGSPTNCDPGSPSIRDKSISFGYGLEMAARPTTCIGIAGDTSTDKARRMFHEARKLKQLTEDSQREFLVDRYKPGVSKVVRFDAKEDYVMKNEKFICNVENTILETFEPIPFADEGDEDA [chain 1 H263A] | 0.95

Variants of: B1
Assay: GST pull-down, immunoblot quantification; S2 cells; only GST-HYP and Flag-CNK2–549 co-expressed; anti-Flag blot; parent: 1

Row | Variant | ratio to parent
4 | chain 1 AYINIAEWTPDQVTDWIKGLDESMKGYLYEFSKQEIGGRALLNIRPYELENLGMLRIGHQEIVLEAVENLRNFHYHLKNDNLQFMALHVATAAKNLHRELARNHAESTKIDTRILHDITRTDATLKPLVGSLERTPFRKQEMYREYCGNVDKCGLELATIAHRDRFALQPVPAIRQSAERLENLANFVIQDISDPMVLQPASLNLVTLKKRESELGFNIESSYNGIHRVTDIKYNSPAHNSGKIEDGDEIVQINYQTVVGWQHRTVLEHLREALPDVVLTVKKRPKHTKMFGQIYMQPYRLPSKKRNMAARWAAQMPSPRAAFLTLDTEQLATGGTGSAVPDPSKSLSSEKREVLTKANPVSSASDSDSSCSDIPTPTDPKLAAREIRLYYPKPRALLQRRNTICGCEYLSLKNSDLVVPSWHERKPGIGSPTNCDPGSPSIRDKSISFGYGLEMAARPTTCIGIAGDTSTDKARRMFHEARKLKQLTEDSQREFLVDRYKPGVSKVVRFDAKEDYVMKNEKFICNVENTILETFEPIPFADEGDEDA [chain 1 I122D, chain 1 L151D] | 0.12

Variants of: B1
Assay: GST pull-down, immunoblot quantification; S2 cells; GST-HYP, Flag-CNK2–549 + RRKM co-expressed; anti-Flag (CNK) blot; parent: 1

Row | Variant | ratio to parent
5 | chain 1 AYINIAEWTPDQVTDWIKGLDESMKGYLYEFSKQEIGGRALLNIRPYELENLGMLRIGHQEIVLEAVENLRNFHYHLKNDNLQFMALHVATAAKNLHRELARNHAESTKIDTRILHDITRTDATLKPLVGSLERTPFRKQEMYREYCGNVDKCGLELATIAHRDRFALQPVPAIRQSAERLENLANFVIQDISDPMVLQPASLNLVTLKKRESELGFNIESSYNGIHRVTDIKYNSPAHNSGKIEDGDEIVQINYQTVVGWQHRTVLEHLREALPDVVLTVKKRPKHTKMFGQIYMQPYRLPSKKRNMAARWAAQMPSPRAAFLTLDTEQLATGGTGSAVPDPSKSLSSEKREVLTKANPVSSASDSDSSCSDIPTPTDPKLAAREIRLYYPKPRALLQRRNTICGCEYLSLKNSDLVVPSWHERKPGIGSPTNCDPGSPSIRDKSISFGYGLEMAARPTTCIGIAGDTSTDKARRMFHEARKLKQLTEDSQREFLVDRYKPGVSKVVRFDAKEDYVMKNEKFICNVENTILETFEPIPFADEGDEDA [chain 1 I122D, chain 1 L151D] | 0.1
